Test results taken from PMC9283937.
Values joined by “and” are separate entries in the source; they are usually repeats but may differ in a detail not shown here. Equal values may be shown once.

Assays:
[1] = target: LarE from Thermotoga maritima, C-terminal His6-tagged (Thermotoga maritima); assay: SEC-MALS; Superdex 200 Increase 10/300 GL, 100 mM Tris-HCl pH 7.2, 300 mM NaCl, 0.5 ml/min; miniDAWN TREOS detector
[2] = target: LarE from Thermotoga maritima, C-terminal His6-tagged (Thermotoga maritima); assay: native MS; nondenaturing nano-ESI-MS (Q Exactive UHMR) under anoxic atmosphere; cluster-assembled His6-tagged LarETm after anaerobic incubation with IscSEc and L-cysteine; CID 15 eV

## LarE from Thermotoga maritima, C-terminal His6-tagged (enzyme)
[1]
  stoichiometry N: 2
[2]
  stoichiometry N: 2 and 4 and 6
